Measurements from PMC12102760 (2025).

B1: Fab F1 (Fab, V domains shown)
VH: EVQLVESGGGLVQPGGSLRLSCAASGFDSGAYLRHWVRQAPGKGLEWVASIYPSYGYTSYADSVKGRFTISADTSKNTAYLQMNSLRAEDTAVYYCARSAASYYGYWHWYHFSPGMDYWGQGTLVTVSS
VL: DIQMTQSPSSLSASVGDRVTITCRASQSVSSAVAWYQQKPGKAPKLLIYSASDLYSGVPSRFSGSRSGTDFTLTISSLQPEDFATYYCQQYVSGGWLITFGQGTKVEIK
B2: Fab L1 (Fab, V domains shown)
VH: EVQLVESGGGLVQPGGSLRLSCAASGFTISSSYIHWVRQAPGKGLEWVASISSYYGSTSYADSVKGRFTISADTSKNTAYLQMNSLRAEDTAVYYCARSHYSVWWGWHSVSYYAAFDYWGQGTLVTVSS
VL: DIQMTQSPSSLSASVGDRVTITCRASQSVSSAVAWYQQKPGKAPKLLIYSASSLYSGVPSRFSGSRSGTDFTLTISSLQPEDFATYYCQQGSAPFTFGQGTKVEIK
B3: Fab C1 (Fab, V domains shown)
VH: EVQLVESGGGLVQPGGSLRLSCAASGFTIYYSSMHWVRQAPGKGLEWVASISSYYGYTYYADSVKGRFTISADTSKNTAYLQMNSLRAEDTAVYYCARYYAMDYWGQGTLVTVSS
VL: DIQMTQSPSSLSASVGDRVTITCRASQSVSSAVAWYQQKPGKAPKLLIYSASSLYSGVPSRFSGSRSGTDFTLTISSLQPEDFATYYCQQYYGYGGYPITFGQGTKVEIK

Tests used:
[1] = molecular target: T1, EphA2 extracellular domain (ECD) (human, UniProt P29317 24-537); assay: SPR
T1 sequence (P29317 24-537): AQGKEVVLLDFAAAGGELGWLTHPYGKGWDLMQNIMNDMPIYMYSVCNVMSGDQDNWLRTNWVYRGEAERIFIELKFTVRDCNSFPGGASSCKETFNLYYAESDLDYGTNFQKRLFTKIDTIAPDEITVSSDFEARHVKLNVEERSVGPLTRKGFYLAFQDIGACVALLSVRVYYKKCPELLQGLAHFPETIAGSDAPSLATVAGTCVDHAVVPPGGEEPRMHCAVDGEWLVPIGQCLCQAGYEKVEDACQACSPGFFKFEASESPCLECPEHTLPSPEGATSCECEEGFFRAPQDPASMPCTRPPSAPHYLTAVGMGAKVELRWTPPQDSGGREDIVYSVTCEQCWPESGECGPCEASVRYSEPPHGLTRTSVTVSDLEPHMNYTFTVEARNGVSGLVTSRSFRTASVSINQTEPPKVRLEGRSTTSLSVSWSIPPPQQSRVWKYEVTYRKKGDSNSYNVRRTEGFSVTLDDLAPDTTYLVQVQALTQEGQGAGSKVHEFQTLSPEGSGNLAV

[2] = molecular target: T1, EphA2 extracellular domain (ECD); assay: SPR; remark: listed apart in the source

Binder	Kd [1] [nM]	koff [2] [s⁻¹]
B1	0.26	7.8e-05
B2	0.44	7.2e-05
B3	0.21	0.00019
